Laboratory results published in the RNAGym collection of RNA variant scans (doi:10.1073/pnas.2313332121).

B1: TPR t1 (parent)
chain: GACCAAUCUGCCCUCAGAGCUCGAGAACAUCUUCGGAUGCAGAGGAGGCAGGCUUCGGUGGCGCGAUAGCGCCAACGUCCUCAACCUCCAAUGCAUCCCACCACAUGAUGAUGCCUGAAGAGCCUUGGUUUUUUG

Variants of: B1
Assay: polymerase ribozyme fitness, log enrichment relative to wild type (log ratio); higher = more active; in vitro selection for triplet polymerase activity
Summary of the method: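 Each subunit of a heterodimeric triplet polymerase ribozyme was represented by a PCR-built, transcribed mutant library that underwent triplicate single-round in vitro selection with frozen incubation at −7 °C. Extended constructs were recovered by gel excision, streptavidin-bead capture and RT-PCR, and Illumina sequencing of input and output libraries kept genotypes with ≥10 input reads and ≥1 read per output. Fitness is the logarithm of genotype enrichment relative to wild-type enrichment, from inverse-variance-weighted replicate averages, with a logarithm base of 2.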
In the case of C80U C88U G127C, the “polymerase ribozyme fitness (log ratio)” value is reported as -1.46.
With C79U C94U the “polymerase ribozyme fitness (log ratio)” value was -0.702.
For C79U A95C G120A, the “polymerase ribozyme fitness (log ratio)” value was -0.000389.
For C82G G128A U133G, the “polymerase ribozyme fitness (log ratio)” value was -2.64.
In the case of U78C A100U, the “polymerase ribozyme fitness (log ratio)” value is reported as -0.819.
With U81C A90C U112G the “polymerase ribozyme fitness (log ratio)” value was -2.24.
With C82G A95U A105G the “polymerase ribozyme fitness (log ratio)” value was -3.5.
With C80A C115U the “polymerase ribozyme fitness (log ratio)” value was -4.97.
With C79U A119U the “polymerase ribozyme fitness (log ratio)” value was -0.48.
In the case of U81A G93C, the “polymerase ribozyme fitness (log ratio)” value is reported as -2.88.
For C79A C115G A118U, the “polymerase ribozyme fitness (log ratio)” value was -4.7.
In the case of U78C A103U, the “polymerase ribozyme fitness (log ratio)” value is reported as -5.46.
With U81C C88A C123G G135U the “polymerase ribozyme fitness (log ratio)” value was 1.08.
For C80U C115U, the “polymerase ribozyme fitness (log ratio)” value was -2.06.
In the case of C82A C85A, the “polymerase ribozyme fitness (log ratio)” value is reported as -1.3.
For C82G A91C, the “polymerase ribozyme fitness (log ratio)” value was -2.29.
For C79U A90C G93A, the “polymerase ribozyme fitness (log ratio)” value was -2.09.
With U78C U129A the “polymerase ribozyme fitness (log ratio)” value was -1.01.
With C82A C99U G122A the “polymerase ribozyme fitness (log ratio)” value was -3.36.
In the case of C79A U116G, the “polymerase ribozyme fitness (log ratio)” value is reported as -4.15.
With C79A G93A the “polymerase ribozyme fitness (log ratio)” value was -1.37.
With C82G G107A the “polymerase ribozyme fitness (log ratio)” value was -6.96.
For U81C G117A A119U, the “polymerase ribozyme fitness (log ratio)” value was -3.73.
In the case of C82G A119U, the “polymerase ribozyme fitness (log ratio)” value is reported as -0.606.
For C82G A119G, the “polymerase ribozyme fitness (log ratio)” value was 0.749.
With C80U G107A the “polymerase ribozyme fitness (log ratio)” value was -6.42.
In the case of C79U C86U, the “polymerase ribozyme fitness (log ratio)” value is reported as -0.175.
For C79U A105C, the “polymerase ribozyme fitness (log ratio)” value was -1.36.
With C80U A105C U112G G120C the “polymerase ribozyme fitness (log ratio)” value was -3.27.
In the case of U81A U92A A118G, the “polymerase ribozyme fitness (log ratio)” value is reported as -5.64.
With C80A A118G the “polymerase ribozyme fitness (log ratio)” value was -3.23.
With C79G C101A the “polymerase ribozyme fitness (log ratio)” value was -3.09.
In the case of C79G C101U, the “polymerase ribozyme fitness (log ratio)” value is reported as -1.49.
With U81C C85A C89A the “polymerase ribozyme fitness (log ratio)” value was -4.24.
For U81A C104U, the “polymerase ribozyme fitness (log ratio)” value was -0.577.
In the case of U81A U109A, the “polymerase ribozyme fitness (log ratio)” value is reported as -5.72.
With C79U C80U the “polymerase ribozyme fitness (log ratio)” value was -2.32.
For C79G C88G U112A, the “polymerase ribozyme fitness (log ratio)” value was -1.98.
For C82G G117U C123G C124U, the “polymerase ribozyme fitness (log ratio)” value was -1.39.
For C82G C88A, the “polymerase ribozyme fitness (log ratio)” value was -1.21.
With C82A C115G U130G the “polymerase ribozyme fitness (log ratio)” value was -1.11.
In the case of C82G U129G, the “polymerase ribozyme fitness (log ratio)” value is reported as -1.36.
In the case of C79U C101G, the “polymerase ribozyme fitness (log ratio)” value is reported as -1.8.
For C80U G113C, the “polymerase ribozyme fitness (log ratio)” value was -3.19.
With C80A A121C the “polymerase ribozyme fitness (log ratio)” value was -1.11.
For C80A C94A U112C, the “polymerase ribozyme fitness (log ratio)” value was -2.27.
With C79A G93A G110U the “polymerase ribozyme fitness (log ratio)” value was -4.93.
With C80U A118C the “polymerase ribozyme fitness (log ratio)” value was -3.16.
For U78C C80A U116G G120C C123A, the “polymerase ribozyme fitness (log ratio)” value was -1.86.
For C80U C98U C115A C124G, the “polymerase ribozyme fitness (log ratio)” value was -0.376.
For C82A A91C, the “polymerase ribozyme fitness (log ratio)” value was -1.72.
For C80A G135U, the “polymerase ribozyme fitness (log ratio)” value was -3.76.
With C79G C123G the “polymerase ribozyme fitness (log ratio)” value was 0.221.
With U81A G110U the “polymerase ribozyme fitness (log ratio)” value was -2.6.
For U78C C82U C123G G127C, the “polymerase ribozyme fitness (log ratio)” value was -1.21.
For U78C G120U, the “polymerase ribozyme fitness (log ratio)” value was -0.256.
In the case of U78C G120C, the “polymerase ribozyme fitness (log ratio)” value is reported as 0.45.
In the case of C79U G107A, the “polymerase ribozyme fitness (log ratio)” value is reported as -4.41.
For C80G G110C, the “polymerase ribozyme fitness (log ratio)” value was -6.58.
With C80G A100C U131A the “polymerase ribozyme fitness (log ratio)” value was -5.8.
In the case of U78C U96A, the “polymerase ribozyme fitness (log ratio)” value is reported as -0.969.
In the case of C80A A91G G120U, the “polymerase ribozyme fitness (log ratio)” value is reported as -5.41.
For U78C A105G U112G, the “polymerase ribozyme fitness (log ratio)” value was -3.99.
With U78G U112G the “polymerase ribozyme fitness (log ratio)” value was 1.33.
In the case of U78C C101U, the “polymerase ribozyme fitness (log ratio)” value is reported as -0.647.
In the case of U81G U87C, the “polymerase ribozyme fitness (log ratio)” value is reported as -2.82.
For U78C C94U U112C, the “polymerase ribozyme fitness (log ratio)” value was 0.656.
In the case of C82A G110C, the “polymerase ribozyme fitness (log ratio)” value is reported as -3.97.
For U78C A100U U125G, the “polymerase ribozyme fitness (log ratio)” value was -1.3.
For C80U C89A A119U, the “polymerase ribozyme fitness (log ratio)” value was -2.89.
In the case of U78C C89U G93U, the “polymerase ribozyme fitness (log ratio)” value is reported as -1.09.
For U78G C102U G110A, the “polymerase ribozyme fitness (log ratio)” value was -4.35.
With U78C C101U G120U A121U U132A the “polymerase ribozyme fitness (log ratio)” value was 1.42.
For C79A U112A C115A C123G, the “polymerase ribozyme fitness (log ratio)” value was 0.259.
With C82A G93C the “polymerase ribozyme fitness (log ratio)” value was -1.06.
With U78C U116G G117A the “polymerase ribozyme fitness (log ratio)” value was -2.14.
With C79U G120A the “polymerase ribozyme fitness (log ratio)” value was 0.635.
In the case of U78G G128A, the “polymerase ribozyme fitness (log ratio)” value is reported as -1.19.
In the case of C79U U81C, the “polymerase ribozyme fitness (log ratio)” value is reported as -1.91.
For U78G C86G C101U, the “polymerase ribozyme fitness (log ratio)” value was -1.51.
For U78G C88G, the “polymerase ribozyme fitness (log ratio)” value was -0.734.
For U78C G93C U96C C115A, the “polymerase ribozyme fitness (log ratio)” value was -1.13.
For U81A C101A G110C U131G G135U, the “polymerase ribozyme fitness (log ratio)” value was -7.53.
